Test results taken from patent US20150086555A1.

Key:
Conditions in all cases: remark: other sources report otherwise
[1] = biological target: recombinant homotrimeric HA A/Indonesia/5/05 H5N1 (Influenza A virus A/Indonesia/5/2005(H5N1)); assay: protein microarray, purified IgG, trimeric HA
[2] = biological target: recombinant homotrimeric HA A/Egypt/3300-NAMRU3/08 H5N1 (Influenza A virus A/Egypt/3300-NAMRU3/2008(H5N1)); assay: protein microarray, purified IgG, trimeric HA
[3] = biological target: recombinant homotrimeric HA A/northern shoveler/California/HKWF115/07 H6N4 (Influenza A virus A/northern shoveler/California/HKWF115/2007(H6N1)); assay: protein microarray, purified IgG, trimeric HA
[4] = biological target: recombinant homotrimeric HA A/Hong Kong/1073/99 H9N2 (Influenza A virus A/Hong Kong/1073/99 (H9N2)); assay: protein microarray, purified IgG, trimeric HA
[5] = biological target: recombinant homotrimeric HA A/Hong Kong/2108/03 H9N2 (Influenza A virus A/HK/2108/2003(H9N2)); assay: protein microarray, purified IgG, trimeric HA
[6] = biological target: recombinant homotrimeric HA A/Wisconsin/67/05 H3N2 (Influenza A virus A/Wisconsin/67/2005(H3N2)); assay: protein microarray, purified IgG, trimeric HA
[7] = biological target: recombinant homotrimeric HA A/Japan/305/57 H2N2 (Influenza A virus A/Japan/305/1957(H2N2)); assay: protein microarray, purified IgG, trimeric HA
[8] = biological target: recombinant homotrimeric HA A/Solomon Islands/3/06 H1N1 (Influenza A virus A/Solomon Islands/3/2006(H1N1)); assay: protein microarray, purified IgG, trimeric HA
[9] = biological target: recombinant homotrimeric HA A/Anhui/1/05 H5N1 (Influenza A virus A/Anhui/1/2005(H5N1)); assay: protein microarray, purified IgG, trimeric HA
[10] = biological target: recombinant homotrimeric HA A/South Carolina/1/18 H1N1 (Influenza A virus A/South Carolina/1/18 (H1N1)); assay: protein microarray, purified IgG, trimeric HA
[11] = biological target: recombinant homotrimeric HA A/Hong Kong/156/97 H5N1 (Influenza A virus A/Hong Kong/156/97 (H5N1)); assay: protein microarray, purified IgG, trimeric HA
[12] = biological target: recombinant homotrimeric HA A/Netherlands/219/03 H7N7 (Influenza A virus A/Netherlands/219/03(H7N7)); assay: protein microarray, purified IgG, trimeric HA
[13] = biological target: recombinant homotrimeric HA A/Vietnam/1203/04 H5N1 (Influenza A virus A/VietNam/1203/2004(H5N1)); assay: protein microarray, purified IgG, trimeric HA
[14] = biological target: recombinant soluble homotrimeric HA of A/Vietnam/1203/04 (H5N1) (Influenza A virus A/VietNam/1203/2004(H5N1)); assay: HA microarray, BCC supernatant
[15] = biological target: recombinant soluble homotrimeric HA of A/swine/Ontario/01911-2/99 (H4N6) (Influenza A virus A/Swine/Ontario/01911-2/99 (H4N6)); assay: HA microarray, BCC supernatant
[16] = biological target: recombinant soluble homotrimeric HA of A/Wisconsin/67/05 (H3N2) (Influenza A virus A/Wisconsin/67/2005(H3N2)); assay: HA microarray, BCC supernatant
[17] = biological target: recombinant soluble homotrimeric HA of A/Hong Kong/2108/03 (H9N2) (Influenza A virus A/HK/2108/2003(H9N2)); assay: HA microarray, BCC supernatant
[18] = biological target: recombinant soluble homotrimeric HA of A/Netherlands/219/03 (H7N7) (Influenza A virus A/Netherlands/219/03(H7N7)); assay: HA microarray, BCC supernatant
[19] = biological target: recombinant soluble homotrimeric HA of A/Solomon Islands/3/06 (H1N1) (Influenza A virus A/Solomon Islands/3/2006(H1N1)); assay: HA microarray, BCC supernatant
[20] = biological target: recombinant soluble homotrimeric HA of A/Japan/305/57 (H2N2) (Influenza A virus A/Japan/305/1957(H2N2)); assay: HA microarray, BCC supernatant
[21] = biological target: recombinant soluble homotrimeric HA of A/northern shoveler/California/HKWF115/07 (H6) (Influenza A virus A/northern shoveler/California/HKWF115/2007(H6N1)); assay: HA microarray, BCC supernatant
[22] = biological target: recombinant homotrimeric HA A/chicken/Vietnam/NCVD-016/08 H5N1 (Influenza A virus A/chicken/Vietnam/NCVD-016/2008(H5N1)); assay: protein microarray, purified IgG, trimeric HA
[23] = biological target: recombinant homotrimeric HA A/California/4/09 H1N1 (Influenza A virus A/California/04/2009(H1N1)); assay: protein microarray, purified IgG, trimeric HA
[24] = biological target: recombinant soluble homotrimeric HA of A/chicken/Vietnam/NCVD-016/08 (H5N1) (Influenza A virus A/chicken/Vietnam/NCVD-016/2008(H5N1)); assay: HA microarray, BCC supernatant
[25] = biological target: recombinant soluble homotrimeric HA of A/Indonesia/5/05 (H5N1) (Influenza A virus A/Indonesia/5/2005(H5N1)); assay: HA microarray, BCC supernatant
[26] = biological target: recombinant soluble homotrimeric HA of A/Anhui/1/05 (H5N1) (Influenza A virus A/Anhui/1/2005(H5N1)); assay: HA microarray, BCC supernatant
[27] = biological target: recombinant soluble homotrimeric HA of A/duck/Yangzhou/02/05 (H8N4) (Influenza A virus A/duck/Yangzhou/02/2005(H8N4)); assay: HA microarray, BCC supernatant
[28] = biological target: recombinant soluble homotrimeric HA of A/California/4/09 (H1N1) (Influenza A virus A/California/04/2009(H1N1)); assay: HA microarray, BCC supernatant

B1: TCN-543 (5081_G23) (antibody, V domains shown)
VH: QVHLVQSGAEVRKPGDSVKVSCKTSGYTFSTYPVAWVRQVPGQGLEWMGWISTYNGNTNFAQNFQGRVTLTTDTTTNTAYMEVRSLKFDDTAVYYCARVEGSYRDFWNNQNRFDPWGQGTLVTVSS
VL: SYVLTQPPSVSVAPGQTARISCGGSNIGGKSVHWYQQKPGQAPVLVVYDDSGRPSGIPERFSGSNSGDTATLTISRVEAGDEADYFCQVWDNFGGVFGTGTKVTVL
[1]
  Trimeric HA Binding: RLU: 91 RLU
[2]
  Trimeric HA Binding: RLU: 580 RLU
[3]
  Trimeric HA Binding: RLU: 101 RLU
[4]
  Trimeric HA Binding: RLU: 9160 RLU
[5]
  Trimeric HA Binding: RLU: 135 RLU
[6]
  Trimeric HA Binding: RLU: 302 RLU
[7]
  Trimeric HA Binding: RLU: 14000 RLU
[8]
  Trimeric HA Binding: RLU: 18300 RLU
[9]
  Trimeric HA Binding: RLU: 601 RLU
[10]
  Trimeric HA Binding: RLU: 259 RLU
[11]
  Trimeric HA Binding: RLU: 112 RLU
[12]
  Trimeric HA Binding: RLU: 162 RLU
[13]
  Trimeric HA Binding: RLU: 640 RLU
[14]
  Trimeric HA Binding: RLU: 488 RLU
[15]
  Trimeric HA Binding: RLU: 428 RLU
[16]
  Trimeric HA Binding: RLU: 1360 RLU
[17]
  Trimeric HA Binding: RLU: 131 RLU
[18]
  Trimeric HA Binding: RLU: 661 RLU
[19]
  Trimeric HA Binding: RLU: 511 RLU
[20]
  Trimeric HA Binding: RLU: 197 RLU
[21]
  Trimeric HA Binding: RLU: 2130 RLU

B2: TCN-557 (5081_A04) (antibody, V domains shown)
VH: QVQLVQSGAEVKKPGASVKVSCKASGHTFTGYYIHWVRQAPGQGLEWMGWINPDSGATSSAQNFQGRVTMTGDTSSSTAYMELSRLSFDDTAVYYCARVLFTSPFDFWGEGTLVTVSS
VL: QAVVTQEPSLAVSPGGTVTLTCGSSTGAVTRGHYPYWFQQKPGQAPRALIYDSAGNRHSWTPARFSGSLLGGKAALTLSGAQPEDEAEYYCLLSYSGVWVFGGGTKLTVL
[1]
  Trimeric HA Binding: RLU: 23300 RLU
[2]
  Trimeric HA Binding: RLU: 23600 RLU
[3]
  Trimeric HA Binding: RLU: 12600 RLU
[4]
  Trimeric HA Binding: RLU: 440 RLU
[5]
  Trimeric HA Binding: RLU: 7660 RLU
[6]
  Trimeric HA Binding: RLU: 327 RLU
[7]
  Trimeric HA Binding: RLU: 28900 RLU
[8]
  Trimeric HA Binding: RLU: 22700 RLU
[9]
  Trimeric HA Binding: RLU: 22000 RLU
[22]
  Trimeric HA Binding: RLU: 25400 RLU
[23]
  Trimeric HA Binding: RLU: 1170 RLU
[10]
  Trimeric HA Binding: RLU: 3590 RLU
[11]
  Trimeric HA Binding: RLU: 22800 RLU
[12]
  Trimeric HA Binding: RLU: 7250 RLU
[13]
  Trimeric HA Binding: RLU: 25400 RLU
[14]
  Trimeric HA Binding: RLU: 47300 RLU
[15]
  Trimeric HA Binding: RLU: 27000 RLU
[24]
  Trimeric HA Binding: RLU: 45500 RLU
[16]
  Trimeric HA Binding: RLU: 10200 RLU
[17]
  Trimeric HA Binding: RLU: 35300 RLU
[25]
  Trimeric HA Binding: RLU: 45200 RLU
[26]
  Trimeric HA Binding: RLU: 46000 RLU
[18]
  Trimeric HA Binding: RLU: 6780 RLU
[19]
  Trimeric HA Binding: RLU: 40700 RLU
[27]
  Trimeric HA Binding: RLU: 50100 RLU
[20]
  Trimeric HA Binding: RLU: 43400 RLU
[21]
  Trimeric HA Binding: RLU: 24400 RLU
[28]
  Trimeric HA Binding: RLU: 17600 RLU
